# Like-named read-outs stand apart in the source and are kept apart here.
# Key:
# [1] = target: T1, BV2465 (recombinant CoV S glycoprotein, Delta) (SARS-CoV-2, UniProt P0DTC2 14-1273); experiment: ELISA, plate coated with rS, serial dilution of the mAb, anti-mouse HRP, A450
# [2] = target: T2, BV2425 (recombinant CoV S glycoprotein, Alpha) (SARS-CoV-2, UniProt P0DTC2 14-1273); experiment: as above
# [3] = target: BV2438 (recombinant CoV S glycoprotein, Beta) (SARS-CoV-2, UniProt P0DTC2 14-1273); experiment: as above
# [4] = target: T3, BV2443 (recombinant CoV S glycoprotein, Gamma) (SARS-CoV-2, UniProt P0DTC2 14-1273); experiment: as above
# [5] = target: T1, BV2465 (recombinant CoV S glycoprotein, …); experiment: BLI, antibody on anti-mouse Fc biosensor, rS analyte
# [6] = target: T4, BV2373 (recombinant CoV S glycoprotein, Prototype) (SARS-CoV-2, UniProt P0DTC2 14-1273); experiment: as above
# [7] = target: T2, BV2425 (recombinant CoV S glycoprotein, …); experiment: as above
# [8] = target: T3, BV2443 (recombinant CoV S glycoprotein, …); experiment: as above
# [9] = target: BV2542 (recombinant CoV S glycoprotein, BA.2.12.1) (SARS-CoV-2, UniProt P0DTC2 14-1273); experiment: hACE2 receptor inhibition ELISA on coated rS; competitor hACE2-His
# [10] = target: BV2523 (recombinant CoV S glycoprotein, BA.2) (SARS-CoV-2, UniProt P0DTC2 14-1273); experiment: as above
# [11] = target: T5, BV2541 (recombinant CoV S glycoprotein, BA.4) (SARS-CoV-2, UniProt P0DTC2 14-1273); experiment: as above
# [12] = target: BV2509 (recombinant CoV S glycoprotein, BA.1) (SARS-CoV-2, UniProt P0DTC2 14-1273); experiment: as above
# [13] = target: BV2540 (recombinant CoV S glycoprotein, BA.5) (SARS-CoV-2, UniProt P0DTC2 14-1273); experiment: as above
# [14] = target: BV2561 (recombinant CoV S glycoprotein, BA.2.75) (SARS-CoV-2, UniProt P0DTC2 14-1273); experiment: as above
# [15] = target: BV2589 (recombinant CoV S glycoprotein, BQ.1.1) (SARS-CoV-2, UniProt P0DTC2 14-1273); experiment: as above
# [16] = target: BV2562 (recombinant CoV S glycoprotein, BA.4.6) (SARS-CoV-2, UniProt P0DTC2 14-1273); experiment: as above
# [17] = target: Delta Plus CoV S glycoprotein (recombinant) (Severe acute respiratory syndrome …, UniProt P0DTC2 14-1273)
# [18] = target: T1, BV2465 (recombinant CoV S glycoprotein, …); experiment: hACE2 receptor inhibition ELISA on coated rS; competitor hACE2-His
# [19] = target: T4, BV2373 (recombinant CoV S glycoprotein, …); experiment: as above
# [20] = target: T5, BV2541 (recombinant CoV S glycoprotein, …); experiment: as above; remark: listed apart in the source
# [21] = target: T5, BV2541 (recombinant CoV S glycoprotein, …); experiment: ELISA on coated rS
binder,measurement,setting,value
"239.12 (antibody, V domains shown) VH: EVKLEESGPVLVKPSQSLSLTCTVTGYSITSDYAWNWIRQFPGNKLEWMGYISNSAGTSYNPSLKSRISITRDTSKNQFFLQLNSVTTEDTATYYCASGGWSSYYAMDYWGQGTSVTVSS VL: DIQMTQSPASLSASVGETVTITCGASENIYGALNWYQRKQGKSPQLLIYGATNLADGMSSRFSGSGSGRQYSLKISSLHPDDVATYYCQNVLSTPYTFGGGTKLEIKR",EC50,[1],0.025 µg/mL
same,EC50,[2],~5 µg/mL
same,EC50,[3],> 5 µg/mL
same,EC50,[4],~5 µg/mL
same,Kd,[5],3.45 pM
same,Kd,[6],3.81 pM
same,koff,[6],1.79e-07 s⁻¹
same,kon,[6],52900 M⁻¹ s⁻¹
same,Kd,[7],2.26 pM
same,koff,[7],1.62e-07 s⁻¹
same,kon,[7],72800 M⁻¹ s⁻¹
same,Kd,[8],4.31 pM
same,koff,[8],1.25e-07 s⁻¹
same,kon,[8],29400 M⁻¹ s⁻¹
same,IC50,[9],> 3 µg/mL
same,IC50,[10],> 3 µg/mL
same,IC50,[11],> 3 µg/mL
same,IC50,[12],> 3 µg/mL
same,IC50,[13],> 5 µg/mL
same,IC50,[14],> 5 µg/mL
same,IC50,[15],> 3 µg/mL
same,IC50,[16],> 5 µg/mL
same,EC50,[17],0.0199 µg/mL
"199.9 (antibody, V domains shown) VH: LVQLQQPGAELVKPGASVKLSCKASGYTFTSYFMYWVRQRPGQGLEWIGEINPSNGGNDFNEKFKSKATLTVDKSSSTAYMQLSSLTSEDSAVYYCTRSGDYGYDGFAYWGQGTLVTVSA VL: NIVLTQSPASLAVSLGQRATISCRASESVDTYGNSFMHWYQQKPGQPPKLLIYLASNLESGVPARFSGSGSRTDFTLTIDPVEADDAATYYCQQNNEDPLTFGAGTKLELK",IC50,[18],> 3 µg/mL
same,IC50,[19],> 3 µg/mL
same,IC50,[20],0.038 µg/mL
same,EC50,[21],0.016 µg/mL
